Where two headings read alike, the source gives them in different places. Ends that are not written are not given here.

The target in assay [1] is human CD81 protein (human) (UniProt P60033). The assay is described as follows: cell-based or functional assay.
Assay [2] has the same target. The assay is described as follows: cell-based or functional assay. The source holds these as a separate data set.
Another assay addresses T1, Ocln3 (human).
T1 construct: also called Ocln3 peptide
T1 peptide: QFYTPAATG
The assay is described as follows: ELISA on coated peptide. From the text:
(§1) Accordingly, Ocln1 consisting of the amino acid sequence represented by SEQ ID NO: 6 ([…]) by the truncation of 7 residues from the […] side of the amino acid sequence represented by SEQ ID NO: 7, Ocln2 consisting of the amino acid sequence represented by SEQ ID NO: 11 ([…]) by the truncation of 7 residues from the 5′-terminal side thereof, and Ocln3 consisting of the amino acid sequence represented by SEQ ID NO: 12 ([…]) by the truncation of 3 to 4 residues from both terminal sides were prepared as antigenic peptides (FIG. 11A). KLH-Ocln peptide (1 μg/well) was used as a positive control antigen.
(§2) Each antigenic peptide was added at 25, 50, 100, and 500 μg/well to an antigen sensitization microplate (Nunc/Thermo Fisher Scientific Inc.) and incubated overnight at room temperature. After blocking with 5% BSA/PBS/0.09% NaN₃ at 37° C. for 2 hours, the 67-2 antibody or normal mouse IgG was added thereto and incubated at room temperature for 1 hour. Ocln1 has a cysteine residue in the sequence and is therefore capable of forming a dimer. Therefore, the analysis was also conducted under acidic conditions (2 N HCl). […] The absorbance at 450 nm/655 nm was measured using a microplate reader. […]
A general note: ELISA stands for enzyme-linked immunosorbent assay.

Assay [3] has as its target T2, antigenic occludin peptide of SEQ ID NO: 7 (positions 214 to 230 of human occludin, second extracellular … (human, also: KLH carrier linked at N-terminus for immunisation, ELISA form not given here)).
T2 construct: also called the antigen; antigenic peptide
T2 peptide: ALCNQFYTPAATGLYVD
The assay is described as follows: ELISA of subclone culture supernatants on the antigen.

For another assay, the target named is T3, Ocln1 (human).
T3 construct: has a cysteine and can form a dimer, so the ELISA was also run under acidic conditions (2 N HCl); also called Ocln1 peptide
T3 peptide: ALCNQFYTPA
The assay can be described thus: ELISA on coated peptide, acidic conditions (2 N HCl), HRP anti-mouse IgG.
Excerpt: as §1, §2

human CD81 protein (human), sequence (P60033 whole entry): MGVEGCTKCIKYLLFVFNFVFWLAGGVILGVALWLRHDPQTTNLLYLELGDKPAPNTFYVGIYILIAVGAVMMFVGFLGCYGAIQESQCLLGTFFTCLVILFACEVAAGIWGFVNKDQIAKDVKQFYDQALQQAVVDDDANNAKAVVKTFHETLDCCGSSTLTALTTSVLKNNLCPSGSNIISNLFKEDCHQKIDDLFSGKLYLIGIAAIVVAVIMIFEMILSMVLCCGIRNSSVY

In assay [1], “anti-human CD81 antibody (JS-81 clone; BD Pharmingen)” came in with an infection inhibition rate, HCVpv H77, Huh7.5.1 monolayer culture (luciferase) of 99.1% and an infection inhibition rate, HCVpv con1, Huh7.5.1 monolayer culture (luciferase) of 99.8%. In assay [2], this molecule returned an infection inhibition rate, HCVpv 9-3, Huh7.5.1 monolayer culture (luciferase) of 98% and an infection inhibition rate, HCVpv con1, Huh7.5.1 monolayer culture (luciferase) of 99%.

B1: mouse anti-human occludin monoclonal antibody clone 67-2 (antibody, IgG1, V domains shown)
VH: EVQLQQSGPELVKPGASVKISCKASGYTFTDYIMDWVKQSHGKSLEWIGYIYPNNGGTGYNQKFKSKATLTIDKSSSTAYMELHSLTSEDSAVYYCAREDGDYGYFDVWGAGTTVTVSS
VL: QAVVTQESALTTSPGGTVILTCRSSTGAVTTSNYANWVQEKPDHLFTGLIGGTSNRAPGVPVRFSGSLIGDKAALTITGAQTEDDAMYFCALWYSTHYVFGGGTKVTVLG
notes: Mouse antibody from hybridoma C67-2; also called 67-2 antibody; anti-occludin antibody 67-2
Regarding B1, the binding result was “no binding” in the assay with Ocln3, “binds” in assay [3] and “binds” in the assay with Ocln1.

(Values after patent US20180282407A1 (FUKUSHIMA MEDICAL UNIVERSITY, published 2018).)
